Experimental data published in publication doi:10.1101/2021.10.20.465166.

Tests used:
Test in all cases: EMSA
C/EBPα p30 = C/EBPα p30 (UniProt P49715-3 1-239)
C/EBPα p42 (full length) = C/EBPα p42 (full length) (UniProt P49715 1-358)
C/EBPα bZIP domain = C/EBPα bZIP domain (UniProt P49715 282-345)
Chain of C/EBPα bZIP domain (P49715 282-345): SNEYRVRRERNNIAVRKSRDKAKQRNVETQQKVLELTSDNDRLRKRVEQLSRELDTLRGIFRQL

Chain of C/EBPα p42 (full length) (P49715 whole entry, the tested form may be a part): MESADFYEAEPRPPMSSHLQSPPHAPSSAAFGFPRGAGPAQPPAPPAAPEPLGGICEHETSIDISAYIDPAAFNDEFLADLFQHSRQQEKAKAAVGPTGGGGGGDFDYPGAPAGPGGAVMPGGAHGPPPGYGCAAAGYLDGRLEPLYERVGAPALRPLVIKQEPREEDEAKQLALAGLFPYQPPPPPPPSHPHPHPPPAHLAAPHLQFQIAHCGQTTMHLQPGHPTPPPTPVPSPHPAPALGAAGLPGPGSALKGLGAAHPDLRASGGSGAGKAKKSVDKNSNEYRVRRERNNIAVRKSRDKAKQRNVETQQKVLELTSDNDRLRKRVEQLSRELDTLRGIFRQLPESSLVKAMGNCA
Chain of C/EBPα p30 (P49715 120-358): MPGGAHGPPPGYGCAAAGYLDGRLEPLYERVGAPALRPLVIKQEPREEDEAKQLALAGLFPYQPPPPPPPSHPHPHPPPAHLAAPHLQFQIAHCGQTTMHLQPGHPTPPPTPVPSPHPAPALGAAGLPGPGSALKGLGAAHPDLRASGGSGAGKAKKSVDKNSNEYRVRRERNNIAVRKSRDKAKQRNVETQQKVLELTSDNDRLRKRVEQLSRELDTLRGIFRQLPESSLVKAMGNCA

B1: CTBP1 intron 2 negative RNA (CTBP1i2N) (structured_RNA)
RNA: GGGACCCGGUUCCCACUCACCCAGC
B1: no binding (C/EBPα p30); no binding (C/EBPα p42 (full length)).

B2: PU.1 intron 4 RNA (PU.1i4) (ssRNA)
RNA: CCCCCACCCAGCCAGGCCAAC
B2: binds (C/EBPα p30); binds (C/EBPα p42 (full length)); no binding (C/EBPα bZIP domain).

B3: CTBP1 intron 2 RNA (CTBP1i2) (ssRNA)
RNA: UUCCCACUCACCCAGCACCC
B3: binds (C/EBPα p30); binds (C/EBPα p42 (full length)); no binding (C/EBPα bZIP domain).
